Numbered stars: 1 amine (or outer) side, 2 acyl side, 3 side chain; on linkers, the order of the positions; unused ones are H or OH. Square brackets hold non-standard residues; d marks the D form. Side chains are listed from the residue outwards. Ends that are not written are not given here. * marks the point of attachment. γGlu = O=C(O)[C@H](CCC(=O)[*:2])N[*:1]; Palmitoyl = CCCCCCCCCCCCCCCC(=O)*; AEEA = NCCOCCOCC(=O)O; Aib = CC(C)(N)C(=O)O
B1: SEQ ID NO: 16 (peptide)
peptide: H[Aib]QGTFTSDLSKLK([γGlu-γGlu-AEEA-Palmitoyl])EKQRQ[Aib]EFIEWLKAGGHPS[Aib]KPPPK-NH2
modifications: N-terminus assumed
SMILES: CCCCCCCCCCCCCCCC(=O)NCCOCCOCC(=O)N[C@@H](CCC(=O)N[C@@H](CCC(=O)NCCCC[C@H](NC(=O)[C@H](CC(C)C)NC(=O)[C@H](CCCCN)NC(=O)[C@H](CO)NC(=O)[C@H](CC(C)C)NC(=O)[C@H](CC(=O)O)NC(=O)[C@H](CO)NC(=O)[C@@H](NC(=O)[C@H](Cc1ccccc1)NC(=O)[C@@H](NC(=O)CNC(=O)[C@H](CCC(N)=O)NC(=O)C(C)(C)NC(=O)[C@@H](N)Cc1c[nH]cn1)[C@@H](C)O)[C@@H](C)O)C(=O)N[C@@H](CCC(=O)O)C(=O)N[C@@H](CCCCN)C(=O)N[C@@H](CCC(N)=O)C(=O)N[C@@H](CCCNC(=N)N)C(=O)N[C@@H](CCC(N)=O)C(=O)NC(C)(C)C(=O)N[C@@H](CCC(=O)O)C(=O)N[C@@H](Cc1ccccc1)C(=O)N[C@H](C(=O)N[C@@H](CCC(=O)O)C(=O)N[C@@H](Cc1c[nH]c2ccccc12)C(=O)N[C@@H](CC(C)C)C(=O)N[C@@H](CCCCN)C(=O)N[C@@H](C)C(=O)NCC(=O)NCC(=O)N[C@@H](Cc1c[nH]cn1)C(=O)N1CCC[C@H]1C(=O)N[C@@H](CO)C(=O)NC(C)(C)C(=O)N[C@@H](CCCCN)C(=O)N1CCC[C@H]1C(=O)N1CCC[C@H]1C(=O)N1CCC[C@H]1C(=O)N[C@@H](CCCCN)C(N)=O)[C@@H](C)CC)C(=O)O)C(=O)O
B2: SEQ ID NO: 17 (peptide)
peptide: H[Aib]QGTFTSDLSKLK([γGlu-γGlu-AEEA-Palmitoyl])EKQRQ[Aib]EFIEWLKA[dA]GHPS[Aib]KPPPK-NH2
modifications: N-terminus assumed
SMILES: CCCCCCCCCCCCCCCC(=O)NCCOCCOCC(=O)N[C@@H](CCC(=O)N[C@@H](CCC(=O)NCCCC[C@H](NC(=O)[C@H](CC(C)C)NC(=O)[C@H](CCCCN)NC(=O)[C@H](CO)NC(=O)[C@H](CC(C)C)NC(=O)[C@H](CC(=O)O)NC(=O)[C@H](CO)NC(=O)[C@@H](NC(=O)[C@H](Cc1ccccc1)NC(=O)[C@@H](NC(=O)CNC(=O)[C@H](CCC(N)=O)NC(=O)C(C)(C)NC(=O)[C@@H](N)Cc1c[nH]cn1)[C@@H](C)O)[C@@H](C)O)C(=O)N[C@@H](CCC(=O)O)C(=O)N[C@@H](CCCCN)C(=O)N[C@@H](CCC(N)=O)C(=O)N[C@@H](CCCNC(=N)N)C(=O)N[C@@H](CCC(N)=O)C(=O)NC(C)(C)C(=O)N[C@@H](CCC(=O)O)C(=O)N[C@@H](Cc1ccccc1)C(=O)N[C@H](C(=O)N[C@@H](CCC(=O)O)C(=O)N[C@@H](Cc1c[nH]c2ccccc12)C(=O)N[C@@H](CC(C)C)C(=O)N[C@@H](CCCCN)C(=O)N[C@@H](C)C(=O)N[C@H](C)C(=O)NCC(=O)N[C@@H](Cc1c[nH]cn1)C(=O)N1CCC[C@H]1C(=O)N[C@@H](CO)C(=O)NC(C)(C)C(=O)N[C@@H](CCCCN)C(=O)N1CCC[C@H]1C(=O)N1CCC[C@H]1C(=O)N1CCC[C@H]1C(=O)N[C@@H](CCCCN)C(N)=O)[C@@H](C)CC)C(=O)O)C(=O)O

Key:
Experiment in all cases: cell-based or functional assay
human GLP-1 receptor = human GLP-1 receptor (human, UniProt P43220 24-463)
human glucagon receptor = human glucagon receptor (human, UniProt P47871 26-477)
human GIP receptor = molecular target: T1, human GIP receptor (human, UniProt P48546 22-466)
T1 sequence (looked up): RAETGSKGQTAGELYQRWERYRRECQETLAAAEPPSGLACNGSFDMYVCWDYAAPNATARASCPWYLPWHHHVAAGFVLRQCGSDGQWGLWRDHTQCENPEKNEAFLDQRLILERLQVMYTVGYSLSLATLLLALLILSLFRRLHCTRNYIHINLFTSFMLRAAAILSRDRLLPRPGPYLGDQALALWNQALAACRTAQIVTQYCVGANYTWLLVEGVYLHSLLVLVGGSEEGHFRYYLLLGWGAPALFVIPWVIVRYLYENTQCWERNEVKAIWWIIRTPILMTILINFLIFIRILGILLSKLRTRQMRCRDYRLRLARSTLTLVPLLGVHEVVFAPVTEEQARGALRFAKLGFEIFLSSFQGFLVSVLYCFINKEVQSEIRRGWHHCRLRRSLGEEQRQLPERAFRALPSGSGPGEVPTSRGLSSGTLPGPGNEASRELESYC

Chain of human glucagon receptor (P47871 26-477): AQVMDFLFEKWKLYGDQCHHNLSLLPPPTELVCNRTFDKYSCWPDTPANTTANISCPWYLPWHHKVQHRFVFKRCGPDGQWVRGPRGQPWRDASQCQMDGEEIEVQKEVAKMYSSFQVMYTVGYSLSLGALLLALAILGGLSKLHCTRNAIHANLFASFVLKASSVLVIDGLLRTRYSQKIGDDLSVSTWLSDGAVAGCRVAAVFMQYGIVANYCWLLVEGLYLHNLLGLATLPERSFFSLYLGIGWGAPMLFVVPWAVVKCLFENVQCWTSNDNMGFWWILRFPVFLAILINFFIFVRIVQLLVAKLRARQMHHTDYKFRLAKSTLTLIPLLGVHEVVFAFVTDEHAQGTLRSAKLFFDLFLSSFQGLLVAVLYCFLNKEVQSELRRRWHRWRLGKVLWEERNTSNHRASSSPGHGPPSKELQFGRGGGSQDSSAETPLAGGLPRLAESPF

Binder | EC50 hGLP-1R (cAMP formation) (human GLP-1 receptor) [pM] | EC50 hGlucagon R (cAMP formation) (human glucagon receptor) [pM] | EC50 hGIP R (cAMP formation) (human GIP receptor) [pM]
B1 | 1.3 | 18.6 | 7.5
B2 | 1.8 | 22 | 11.4

Reference: patent US20180155407A1 (Sanofi, published 2018)
